Test results reported in US20240190989A1 (BEIGENE SWITZERLAND, published 2024).
One block for each binder: values may come before it.

How the values were obtained:
[1] = molecular target: T1, full-length human CD137 on cells (Hut78/huCD137, HEK293 transfectants, JK-NFKB-CD137) (human, UniProt Q07011 24-255); assay: flow cytometry on Hut78/huCD137 cells: serially diluted antibody against human CD137 ligand ECD-mIgG2a, bound ligand detected with goat anti-murine IgG-APC [panel B]
T1 construct: also called native CD137; TNFRSF9
T1 sequence (Q07011 24-255 limits assumed): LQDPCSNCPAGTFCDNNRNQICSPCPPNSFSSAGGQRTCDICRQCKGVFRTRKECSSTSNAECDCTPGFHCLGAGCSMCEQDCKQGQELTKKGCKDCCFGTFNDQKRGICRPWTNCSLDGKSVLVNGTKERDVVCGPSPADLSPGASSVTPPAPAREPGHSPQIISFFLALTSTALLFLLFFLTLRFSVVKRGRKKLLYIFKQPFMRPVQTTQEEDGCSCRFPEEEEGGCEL

[2] = molecular target: T2, TNFRSF1A (CD120a), Sino Biological (UniProt P19438 30-211, limits assumed); assay: antigen ELISA, antigens coated at 10 µg/ml
T2 construct: also called TNFRSF1A(CD12.a)
T2 sequence (looked up): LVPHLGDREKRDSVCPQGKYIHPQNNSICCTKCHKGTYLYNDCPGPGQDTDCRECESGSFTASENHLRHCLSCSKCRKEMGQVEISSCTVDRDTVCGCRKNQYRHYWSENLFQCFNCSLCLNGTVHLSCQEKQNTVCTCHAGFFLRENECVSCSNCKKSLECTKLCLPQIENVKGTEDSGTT

human OX40 ECD-His = molecular target: T3, human OX40 ECD-His (human, UniProt P43489 29-216); assay: antigen ELISA, antigens coated at 10 µg/ml
T3 construct: also called human OX40-his; TNFRSF4(OX40)
T3 sequence: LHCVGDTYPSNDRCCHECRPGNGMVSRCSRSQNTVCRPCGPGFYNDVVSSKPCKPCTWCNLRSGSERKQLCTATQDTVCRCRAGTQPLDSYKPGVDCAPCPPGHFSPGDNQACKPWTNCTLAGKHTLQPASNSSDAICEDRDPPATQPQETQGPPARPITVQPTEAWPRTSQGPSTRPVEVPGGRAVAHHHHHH

[3] = molecular target: T4, TNFRSF1B (CD120b), Sino Biological (UniProt P20333 23-257); assay: antigen ELISA, antigens coated at 10 µg/ml
T4 sequence (looked up): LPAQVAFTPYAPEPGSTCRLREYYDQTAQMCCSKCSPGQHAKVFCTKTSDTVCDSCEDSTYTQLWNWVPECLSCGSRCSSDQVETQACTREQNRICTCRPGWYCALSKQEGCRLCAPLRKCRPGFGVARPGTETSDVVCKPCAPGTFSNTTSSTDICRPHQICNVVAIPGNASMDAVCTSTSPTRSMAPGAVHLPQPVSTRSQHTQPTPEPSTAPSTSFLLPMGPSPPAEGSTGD

human CD40 ECD-mIgG2a = molecular target: T5, human CD40 ECD-mIgG2a (human); assay: antigen ELISA, antigens coated at 10 µg/ml
T5 construct: also called TNFRSF5(CD40)
T5 sequence (chain, as listed by the source limits assumed): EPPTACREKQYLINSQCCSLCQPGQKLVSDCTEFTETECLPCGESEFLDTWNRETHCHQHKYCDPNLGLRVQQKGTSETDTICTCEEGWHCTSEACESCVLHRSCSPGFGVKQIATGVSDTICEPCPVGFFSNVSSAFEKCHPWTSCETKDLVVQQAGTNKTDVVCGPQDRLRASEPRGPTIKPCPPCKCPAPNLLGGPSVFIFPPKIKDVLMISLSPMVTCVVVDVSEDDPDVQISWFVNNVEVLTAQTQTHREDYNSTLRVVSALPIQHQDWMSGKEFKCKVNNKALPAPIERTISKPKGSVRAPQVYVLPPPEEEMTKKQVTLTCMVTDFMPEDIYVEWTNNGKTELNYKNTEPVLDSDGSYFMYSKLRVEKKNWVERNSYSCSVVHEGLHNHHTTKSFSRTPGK

[4] = molecular target: T1, full-length human CD137 on cells …; assay: flow cytometry on Hut78/huCD137 cells [panel B]
human CD137 ECD-mIgG2a [5] = molecular target: T6, human CD137 ECD-mIgG2a (human); assay: SPR, A-CEAxCD137 format
T6 construct: ECD 24-183 of huCD137 fused to mouse IgG2a Fc; also called huCD137-mIgG2a; huCD137
T6 sequence (chain, as listed by the source limits assumed): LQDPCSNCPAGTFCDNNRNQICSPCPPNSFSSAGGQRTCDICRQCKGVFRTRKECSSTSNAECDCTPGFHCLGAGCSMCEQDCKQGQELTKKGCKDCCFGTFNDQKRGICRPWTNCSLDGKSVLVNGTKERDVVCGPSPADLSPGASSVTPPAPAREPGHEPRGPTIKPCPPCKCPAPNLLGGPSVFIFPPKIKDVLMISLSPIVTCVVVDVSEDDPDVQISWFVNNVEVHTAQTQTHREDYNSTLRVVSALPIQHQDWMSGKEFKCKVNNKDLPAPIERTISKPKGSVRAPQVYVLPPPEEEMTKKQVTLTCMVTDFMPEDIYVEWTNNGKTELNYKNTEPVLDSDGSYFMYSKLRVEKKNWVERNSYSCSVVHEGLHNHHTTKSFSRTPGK

human CD137 ECD-mIgG2a [6] = molecular target: T6, human CD137 ECD-mIgG2a; assay: SPR, Format A-CEAxCD137; Format A-CEAxCD137, not Fc fusion VH
[7] = molecular target: T1, full-length human CD137 on cells …; assay: flow cytometry on Hut78/huCD137 cells
[8] = molecular target: T1, full-length human CD137 on cells …; assay: flow cytometry on Hut78/huCD137 cells [panel A]
[9] = molecular target: T7, full-length human CEA on cells (MKN45, LOVO, L929/huCEA, CT26/CEA, CT26-OS8-CEA) (human, UniProt P06731 35-685); assay: flow cytometry on CT26/CEA cells [panel A]
T7 construct: also called CEACAM5; native CEA
T7 sequence: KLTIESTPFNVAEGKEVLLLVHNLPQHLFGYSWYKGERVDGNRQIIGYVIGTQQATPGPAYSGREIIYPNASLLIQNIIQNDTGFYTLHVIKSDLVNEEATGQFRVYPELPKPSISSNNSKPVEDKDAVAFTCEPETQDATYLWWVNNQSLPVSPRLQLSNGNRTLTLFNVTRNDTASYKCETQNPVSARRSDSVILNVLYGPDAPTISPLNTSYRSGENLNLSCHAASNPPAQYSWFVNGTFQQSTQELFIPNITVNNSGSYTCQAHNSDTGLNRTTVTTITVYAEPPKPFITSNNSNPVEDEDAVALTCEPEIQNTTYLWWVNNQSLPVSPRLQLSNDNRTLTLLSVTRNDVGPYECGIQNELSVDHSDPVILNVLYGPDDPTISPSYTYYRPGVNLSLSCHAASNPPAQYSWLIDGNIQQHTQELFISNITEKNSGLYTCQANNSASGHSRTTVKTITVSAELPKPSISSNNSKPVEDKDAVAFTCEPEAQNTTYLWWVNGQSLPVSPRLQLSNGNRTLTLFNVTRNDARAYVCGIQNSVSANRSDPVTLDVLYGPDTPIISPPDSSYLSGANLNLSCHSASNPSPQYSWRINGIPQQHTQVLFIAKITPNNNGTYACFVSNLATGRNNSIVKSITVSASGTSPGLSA

[10] = molecular target: T1, full-length human CD137 on cells …; assay: flow cytometry on Hut78/huCD137 cells; remark: listed apart in the source
human CD137 ECD-mIgG2a [11] = molecular target: T6, human CD137 ECD-mIgG2a; assay: SPR, Fc-fusion VH captured
human CD137 ECD-mIgG2a [12] = molecular target: T6, human CD137 ECD-mIgG2a; assay: competition ELISA on coated human CD137 ECD-mIgG2a: serially diluted human CD137 ligand ECD-mIgG2a against BGA-5623 (IgG4), bound antibody detected with anti-human IgG-HRP [panel A]
[13] = molecular target: T1, full-length human CD137 on cells …; assay: flow cytometry competition on Hut78/huCD137 cells: serially diluted human CD137 ligand-mIgG2a against BGA-4712 VH-Fc, bound VH-Fc detected with anti-hu IgG Fc [panel B]

B2: anti-CEA Ab (IgG1) (antibody, V domains shown)
VH: QVQLVQSGAEVKKPGASVKVSCKASGYIFTSYYLHWVRQAPGQGLEWIGYINPQTGKTSYAQKFQGRVTMTRDTSTSTVYMELSSLRSEDTAVYYCAREYGNYNYPLDYWGQGTLVTVSS
VL: DIQMTQSPSSLSASVGDRVTITCRASENQYGYLAWYQQKPGKVPKLLIYNYKNLVEGVPSRFSGSGSGTDFTLTISSLQPEDVATYYCQHHLGTPYTFGQGTKVEIKR
binding result [4]: no binding (tested: last point just above 10^2 ug/ml)

B3: A-CEAxCD137-M3 (Format A with BGA-4712-M3) (bispecific antibody, human IgG1, kappa)
heavy: QVQLVQSGAEVKKPGASVKVSCKASGYIFTSYYLHWVRQAPGQGLEWIGYINPQTGKTSYAQKFQGRVTMTRDTSTSTVYMELSSLRSEDTAVYYCAREYGNYNYPLDYWGQGTLVTVSSASTKGPSVFPLAPSSKSTSGGTAALGCLVKDYFPEPVTVSWNSGALTSGVHTFPAVLQSSGLYSLSSVVTVPSSSLGTQTYICNVNHKPSNTKVDKKVEPKSCDKTHTCPPCPAPPAAGPSVFLFPPKPKDTLMISRTPEVTCVVVDVSHEDPEVKFNWYVDGVEVHNAKTKPREEQYNSTYRVVSVLTVLHQDWLNGKEYKCKVSNKALAAPIEKTISKAKGQPREPQVYTLPPSREEMTKNQVSLTCLVKGFYPSDIAVEWESNGQPENNYKTTPPVLDSDGSFFLYSKLTVDKSRWQQGNVFSCSVMHEALHNHYTQKSLSLSPGKGGGGSEVQLLESGGGLVQPGGSLRLSCAASGFTLSAEDVGWVRQAPGKGLEWVSAILDFGGSTYYAESVKGRFTISRDNAKNTLYLQMSSLRAEDTAVYYCARVVYHAGGGVTFDYWGQGTLVTVSS
light: DIQMTQSPSSLSASVGDRVTITCRASENQYGYLAWYQQKPGKVPKLLIYNYKNLVEGVPSRFSGSGSGTDFTLTISSLQPEDVATYYCQHHLGTPYTFGQGTKVEIKRTVAAPSVFIFPPSDEQLKSGTASVVCLLNNFYPREAKVQWKVDNALQSGNSQESVTEQDSKDSTYSLSSTLTLSKADYEKHKVYACEVTHQGLSSPVTKSFNRGEC
Kd (human CD137 ECD-mIgG2a [5]): 289 nM | Kd (human CD137 ECD-mIgG2a [6]): 255 nM | EC50 [7]: 0.52 µg/mL

B4: BGA-4712 (anti-huCD137 VH domain antibody as VH-Fc with inert human IgG1 Fc) (Fc fusion)
chain: EVQLLESGGGLVQPGGSLRLSCAASGFMLSAEDVGWVRQAPGKGLEWVSAILDFGGSTYYADSVKGRFTISRDNSKNTLYLQMNSLRAEDTAVYYCARVVYHAGGGVTFDYWGQGTLVTVSSGGGGSDKTHTCPPCPAPPAAGPSVFLFPPKPKDTLMISRTPEVTCVVVDVSHEDPEVKFNWYVDGVEVHNAKTKPREEQYNSTYRVVSVLTVLHQDWLNGKEYKCKVSNKALAAPIEKTISKAKGQPREPQVYTLPPSREEMTKNQVSLTCLVKGFYPSDIAVEWESNGQPENNYKTTPPVLDSDGSFFLYSKLTVDKSRWQQGNVFSCSVMHEALHNHYTQKSLSLSPGK
EC50 (read off the curve) [8]: ~3 µg/mL | binding result [9]: no binding (tested: last point just above 10^2 ug/ml)

The next lines start with the values.

IC50 (read off the curve) [1]: ~0.03 µg/mL | binding result [2]: no binding (tested: not shown) | binding result (human OX40 ECD-His): no binding (tested: not shown) | binding result [3]: no binding (tested: not shown) | binding result (human CD40 ECD-mIgG2a): no binding (tested: not shown)
B1: Urelumab analog (antibody, human IgG4 S228P, kappa, V domains shown)
VH: QVQLQQWGAGLLKPSETLSLTCAVYGGSFSGYYWSWIRQSPEKGLEWIGEINHGGYVTYNPSLESRVTISVDTSKNQFSLKLSSVTAADTAVYYCARDYGPGNYDWYFDLWGRGTLVTVSS
VL: EIVLTQSPATLSLSPGERATLSCRASQSVSSYLAWYQQKPGQAPRLLIYDASNRATGIPARFSGSGSGTDFTLTISSLEPEDFAVYYCQQRSNWPPALTFGGGTKVEIKR
notes: also called Urelumab analog antibody

EC50 (read off the curve) [10]: ~0.5 µg/mL | Kd (human CD137 ECD-mIgG2a [11]): 50.3 nM
B5: BGA-5623-mutFc (Fc fusion VH Ab) (Fc fusion)
chain: EVQLLESGGGLVQPGGSLRLSCAASGFTVSAEDVGWVRQAPGKGLEWVSAILDKGGSTYYAESVKGRFTISRDNAKNTLYLQMSSLRAEDTAVYYCARIVYHAGGGVTFDTRGQGTQVTVSSGGGGSDKTHTCPPCPAPPAAGPSVFLFPPKPKDTLMISRTPEVTCVVVDVSHEDPEVKFNWYVDGVEVHNAKTKPREEQYNSTYRVVSVLTVLHQDWLNGKEYKCKVSNKALAAPIEKTISKAKGQPREPQVYTLPPSREEMTKNQVSLTCLVKGFYPSDIAVEWESNGQPENNYKTTPPVLDSDGSFFLYSKLTVDKSRWQQGNVFSCSVMHEALHNHYTQKSLSLSPGK

IC50 (read off the curve) (human CD137 ECD-mIgG2a [12]): ~1 µg/mL | IC50 (read off the curve) [13]: ~0.4 µg/mL
B6: human CD137 ligand-mIgG2a (Fc fusion)
chain: EPRGPTIKPCPPCKCPAPNLLGGPSVFIFPPKIKDVLMISLSPIVTCVVVDVSEDDPDVQISWFVNNVEVHTAQTQTHREDYNSTLRVVSALPIQHQDWMSGKEFKCKVNNKDLPAPIERTISKPKGSVRAPQVYVLPPPEEEMTKKQVTLTCMVTDFMPEDIYVEWTNNGKTELNYKNTEPVLDSDGSYFMYSKLRVEKKNWVERNSYSCSVVHEGLHNHHTTKSFSRTPGKGGGGSREGPELSPDDPAGLLDLRQGMFAQLVAQNVLLIDGPLSWYSDPGLAGVSLTGGLSYKEDTKELVVAKAGVYYVFFQLELRRVVAGEGSGSVSLALHLQPLRSAAGAAALALTVDLPPASSEARNSAFGFQGRLLHLSAGQRLGVHLHTEARARHAWQLTQGATVLGLFRVTPEIPAGLPSPRSE
notes: also called human CD137 ligand ECD-mIgG2a; huCD137 ligand
